Laboratory results: patent US20120231006A1 (Amgen, published 2012)

How the values were obtained:
[1] = biological target: human Orai3 (human, UniProt Q9BRQ5 1-295); experiment: FACS, 293EBNA transfectants
Protocol: (§1) Purified monoclonal antibodies from hybridoma supernantants of the subclones derived from initial hits were assessed for binding to human Orai1, Orai2 and Orai3 expressed on HEK-293-EBNA cells along with vector transfected control parental cells. Cells stained with or without primary mAbs were counter-stained with a secondary phycoerythrin-labeled goat (“Gt”) anti-human (“Hu”) IgG F(ab′)₂ antibody fragment and visualized using FACS.
(§2) FACS binding analysis. Transfected 293EBNA cells transiently expressed hOrai1, human Orai2, or human Orai3 (results of binding comparison in FIG. 11A-B), or hOrai1(S218G) (results of binding comparison in FIG. 12A-B); or hOrai1 and hSTIM1; mOrai1 and mouse STIM1; or rat Orai1 and rat STIM1 (results of binding comparison in FIG. 13). The transfected cells were harvested at 48 hours post-transfection. Cells transfected with pcDNA3.1 were used as negative controls. Cells were washed once with ice-cold 1×PBS, resuspended in ice-cold FACS buffer (1×D-PBS+2% goat serum), and 2×10⁵ cells in […] were stained per antibody combination. All antibody incubation steps were performed on ice for 1 hour. […] Next, the unlabelled antibody was detected using goat F(ab′)₂ anti-mouse or anti-human IgG-phycoerythrin (IgG-PE), followed by a wash with 200 μL of ice-cold FACS buffer before flow cytometry analysis. Unstained cells and cells stained with detecting antibodies were used as negative controls. The values of relative level of fluorescence were calculated using FCS Express (De Novo Software) and mean values were calculated using log-transformed data (geometric mean). Purified mAbs were assessed by FACS assay for their ability to specifically bind human Orai1, Orai2 and Orai3 proteins expressed on HEK-293 cells.

[2] = biological target: T1, human Orai2 (human, UniProt Q96SN7 1-254); experiment: FACS, 293EBNA transfectants
T1 construct: also called hOrai2
T1 sequence (Q96SN7 whole entry): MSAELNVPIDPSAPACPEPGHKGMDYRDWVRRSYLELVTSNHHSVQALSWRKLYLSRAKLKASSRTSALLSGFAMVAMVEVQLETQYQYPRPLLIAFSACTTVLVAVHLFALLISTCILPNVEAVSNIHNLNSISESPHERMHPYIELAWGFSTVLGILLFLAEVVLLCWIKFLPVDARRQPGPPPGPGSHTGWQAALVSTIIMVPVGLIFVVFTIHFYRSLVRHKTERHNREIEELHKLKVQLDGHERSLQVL
Protocol: as §1, §2

[3] = biological target: T2, hOrai1-mOrai1 ECL2 (VST) protein (human/mouse chimera, UniProt Q96D31 1-301); experiment: FACS, 293EBNA; set-up: concentration or dose not given beside the values
T2 construct: also called Ch
T2 sequence (Q96D31 other isoform, or with tags, fused parts or gaps): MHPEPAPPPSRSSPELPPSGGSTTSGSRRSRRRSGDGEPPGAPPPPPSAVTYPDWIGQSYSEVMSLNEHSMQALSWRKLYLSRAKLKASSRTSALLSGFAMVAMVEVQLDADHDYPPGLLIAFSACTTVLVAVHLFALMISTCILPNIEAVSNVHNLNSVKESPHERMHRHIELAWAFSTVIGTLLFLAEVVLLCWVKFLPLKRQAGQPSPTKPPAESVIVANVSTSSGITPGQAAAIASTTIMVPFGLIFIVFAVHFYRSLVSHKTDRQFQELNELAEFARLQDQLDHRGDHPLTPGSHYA
Excerpt: (§3) FIG. 17A-D illustrates the results of FACS analysis showing binding to the indicated mOrai1-hOrai1 ECL2 chimeric mutants expressed on the surface of HEK-293-EBNA cells. Transfected cells were stained first with recombinant monoclonal antibodies then counter-stained with a secondary phycoerythrin-labeled goat (“Gt”) anti-human (“Hu”) IgG F(ab′)₂ antibody fragment and visualized using FACS.
(§4) Representative results of FACS analysis of binding to the mutant hOrai1-mOrai1 ECL2 chimera described above by exemplary anti-hOrai1 antibodies of the present invention are shown in FIG. 17A-D, Table 10A and Table 10B below. Table 10A (Campaign 1) and Table 10B (Campaign 2) show the gain in binding ability of exemplary monoclonal antibodies to hOrai 1-mOrai 1 ECL2 chimera mutants as determined by FACS.

[4] = biological target: T3, hOrai1-mOrai1 ECL2 (AANVST) protein (human/mouse chimera, UniProt Q96D31 1-301); experiment: FACS, 293EBNA; set-up: concentration or dose not given beside the values
T3 construct: also called Ch
T3 sequence (Q96D31 other isoform, or with tags, fused parts or gaps): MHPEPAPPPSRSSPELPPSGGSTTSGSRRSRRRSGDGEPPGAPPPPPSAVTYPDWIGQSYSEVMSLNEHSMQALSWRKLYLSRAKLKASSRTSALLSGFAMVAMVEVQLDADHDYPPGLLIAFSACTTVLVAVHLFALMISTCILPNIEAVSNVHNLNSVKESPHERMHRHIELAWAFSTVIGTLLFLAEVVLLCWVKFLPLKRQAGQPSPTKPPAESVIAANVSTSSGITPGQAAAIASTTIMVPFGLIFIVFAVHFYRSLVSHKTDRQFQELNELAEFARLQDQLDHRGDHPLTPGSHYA
Excerpt: as §3, §4

[5] = biological target: T4, hOrai1-mOrai1 ECL2 (…) protein (human/mouse chimera, UniProt Q96D31 1-301); experiment: FACS, 293EBNA; set-up: concentration or dose not given beside the values
T4 construct: also called Ch
T4 sequence (Q96D31 other isoform, or with tags, fused parts or gaps): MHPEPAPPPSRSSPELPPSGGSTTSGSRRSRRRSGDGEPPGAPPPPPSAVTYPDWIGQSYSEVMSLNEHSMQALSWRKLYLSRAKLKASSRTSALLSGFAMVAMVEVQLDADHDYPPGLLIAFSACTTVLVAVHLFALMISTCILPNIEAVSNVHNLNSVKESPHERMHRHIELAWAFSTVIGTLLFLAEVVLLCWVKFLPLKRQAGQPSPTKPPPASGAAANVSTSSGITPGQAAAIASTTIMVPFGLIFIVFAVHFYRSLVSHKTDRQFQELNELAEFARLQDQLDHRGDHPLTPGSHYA
Excerpt: as §3, §4

[6] = biological target: T5, hOrai1-mOrai1 ECL2 (GAA) protein (human/mouse chimera, UniProt Q96D31 1-301); experiment: FACS, 293EBNA; set-up: concentration or dose not given beside the values
T5 construct: also called Ch
T5 sequence (Q96D31 other isoform, or with tags, fused parts or gaps): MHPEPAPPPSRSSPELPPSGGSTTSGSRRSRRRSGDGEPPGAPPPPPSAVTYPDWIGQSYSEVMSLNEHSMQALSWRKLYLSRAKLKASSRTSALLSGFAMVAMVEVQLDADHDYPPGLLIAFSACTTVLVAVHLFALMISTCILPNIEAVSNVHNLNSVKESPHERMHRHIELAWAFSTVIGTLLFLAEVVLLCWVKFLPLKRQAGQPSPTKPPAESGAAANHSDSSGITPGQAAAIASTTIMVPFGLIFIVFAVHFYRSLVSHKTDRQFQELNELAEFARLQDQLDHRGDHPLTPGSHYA
Excerpt: as §3, §4

[7] = biological target: T6, hOrai1-mOrai1 ECL2 chimeric protein (human/mouse chimera, UniProt Q96D31 1-301); experiment: FACS, 293EBNA; set-up: concentration or dose not given beside the values
T6 construct: human Orai1 with mouse ECL2; also called Ch
T6 sequence (Q96D31 other isoform, or with tags, fused parts or gaps mutant): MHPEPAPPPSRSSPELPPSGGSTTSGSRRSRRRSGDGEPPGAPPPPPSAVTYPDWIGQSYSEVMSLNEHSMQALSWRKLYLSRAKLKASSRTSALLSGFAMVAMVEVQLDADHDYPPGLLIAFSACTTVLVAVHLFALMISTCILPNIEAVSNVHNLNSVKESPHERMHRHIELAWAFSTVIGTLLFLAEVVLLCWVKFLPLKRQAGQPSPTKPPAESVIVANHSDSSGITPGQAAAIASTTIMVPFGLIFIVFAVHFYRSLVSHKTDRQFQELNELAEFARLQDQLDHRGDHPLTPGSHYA
Excerpt: as §3, §4

[8] = biological target: T7, hOrai1-mOrai1 ECL2 (PASGAA) protein (human/mouse chimera, UniProt Q96D31 1-301); experiment: FACS, 293EBNA; set-up: concentration or dose not given beside the values
T7 construct: also called Ch
T7 sequence (Q96D31 other isoform, or with tags, fused parts or gaps): as the sequence (Q96D31 other isoform, or with tags, fused parts or gaps mutant) above, with A216P, E217A, V219G, I220A, V221A counted along it
Excerpt: as §3, §4

[9] = biological target: T8, mouse Orai1 (mouse, UniProt Q8BWG9 1-304); experiment: FACS, 293EBNA transfectants with STIM1, thapsigargin
T8 construct: co-expressed with mouse STIM1; also called mOrai1
Protocol: (§5) FIG. 13A-B illustrates the results of FACS analysis showing binding to human Orai1 expressed on the surface of HEK-293-EBNA cells that were treated with 2 μM Thapsigargin. HEK-293-EBNA cells were transiently transfected with human Orai1 and human STIM1, mouse Orai1 and mouse STIM1, rat Orai1 and rat STIM1 and control empty vector. Transfected cells were stained first with recombinant monoclonal antibodies then counter-stained with a secondary phycoerythrin-labeled Gt anti-Hu IgG F(ab′)₂ or Gt anti-Mu IgG F(ab′)₂ antibody fragment, as appropriate, and visualized using FACS.
as §2

[10] = biological target: T9, rat Orai1 (rat, UniProt Q5M848 1-304); experiment: as above
T9 construct: co-expressed with rat STIM1; also called rOrai1
T9 sequence (Q5M848 whole entry): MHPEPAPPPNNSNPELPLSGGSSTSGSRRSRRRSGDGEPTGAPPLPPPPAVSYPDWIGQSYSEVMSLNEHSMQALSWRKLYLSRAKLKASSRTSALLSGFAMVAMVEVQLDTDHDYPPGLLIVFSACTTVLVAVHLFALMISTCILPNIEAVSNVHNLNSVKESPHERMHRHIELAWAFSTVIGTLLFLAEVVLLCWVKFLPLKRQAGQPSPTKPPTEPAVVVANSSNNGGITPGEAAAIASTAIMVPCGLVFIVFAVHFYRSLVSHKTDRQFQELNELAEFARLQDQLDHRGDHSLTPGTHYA
Protocol: as §5, §2

[11] = biological target: human Orai1 (human, UniProt Q96D31 1-301); experiment: cell-based or functional assay
Sequence of human Orai1 (Q96D31 whole entry): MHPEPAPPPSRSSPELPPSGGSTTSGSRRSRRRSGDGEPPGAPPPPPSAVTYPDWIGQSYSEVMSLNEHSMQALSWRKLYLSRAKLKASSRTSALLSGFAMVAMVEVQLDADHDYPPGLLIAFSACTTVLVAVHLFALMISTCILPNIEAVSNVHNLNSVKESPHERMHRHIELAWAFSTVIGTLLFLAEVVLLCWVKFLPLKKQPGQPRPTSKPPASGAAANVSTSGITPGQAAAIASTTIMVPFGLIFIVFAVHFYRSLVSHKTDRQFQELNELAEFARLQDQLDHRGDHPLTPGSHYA

[12] = biological target: T10, mOrai1-hOrai1 ECL2 (SPTKPPAE) protein (human/mouse chimera, UniProt Q8BWG9 1-304 (mouse entry)); experiment: flow cytometry on HEK-293 cells transfected with the chimera (loss of binding experiment)
T10 construct: also called Ch
T10 sequence (Q8BWG9 other isoform, or with tags, fused parts or gaps): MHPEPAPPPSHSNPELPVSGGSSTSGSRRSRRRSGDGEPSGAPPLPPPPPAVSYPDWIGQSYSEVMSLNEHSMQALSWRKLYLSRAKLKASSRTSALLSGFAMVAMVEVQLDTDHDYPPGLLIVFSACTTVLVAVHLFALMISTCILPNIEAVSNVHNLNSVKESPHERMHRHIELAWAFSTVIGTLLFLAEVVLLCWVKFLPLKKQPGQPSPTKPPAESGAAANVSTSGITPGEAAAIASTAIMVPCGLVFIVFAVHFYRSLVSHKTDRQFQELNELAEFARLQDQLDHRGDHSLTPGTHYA

[13] = biological target: T11, mOrai1-hOrai1 ECL2 (KPPAE) protein (human/mouse chimera, UniProt Q8BWG9 1-304 (mouse entry)); experiment: as above
T11 construct: also called Ch
T11 sequence (Q8BWG9 other isoform, or with tags, fused parts or gaps): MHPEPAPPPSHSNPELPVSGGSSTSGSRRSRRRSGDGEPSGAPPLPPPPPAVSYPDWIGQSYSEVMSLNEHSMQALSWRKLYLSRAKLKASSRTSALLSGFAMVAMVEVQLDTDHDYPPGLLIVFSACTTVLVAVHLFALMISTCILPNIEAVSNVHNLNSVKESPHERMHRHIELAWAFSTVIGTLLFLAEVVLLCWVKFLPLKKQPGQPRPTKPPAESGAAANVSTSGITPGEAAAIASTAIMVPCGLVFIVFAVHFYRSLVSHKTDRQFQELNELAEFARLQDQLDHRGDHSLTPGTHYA

[14] = biological target: T12, mOrai1-hOrai1 ECL2 (AESVIV) protein (human/mouse chimera, UniProt Q8BWG9 1-304 (mouse entry)); experiment: as above
T12 construct: also called Ch
T12 sequence (Q8BWG9 other isoform, or with tags, fused parts or gaps): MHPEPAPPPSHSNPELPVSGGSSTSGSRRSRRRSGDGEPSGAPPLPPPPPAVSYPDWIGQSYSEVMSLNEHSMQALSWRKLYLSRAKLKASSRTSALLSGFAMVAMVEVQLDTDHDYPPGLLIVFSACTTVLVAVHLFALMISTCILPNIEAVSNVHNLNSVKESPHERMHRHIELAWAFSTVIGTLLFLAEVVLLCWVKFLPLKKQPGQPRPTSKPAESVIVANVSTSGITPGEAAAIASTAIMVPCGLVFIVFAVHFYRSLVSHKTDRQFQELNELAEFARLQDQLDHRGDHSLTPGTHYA

[15] = biological target: T13, mOrai1-hOrai1 ECL2 (…) protein (human/mouse chimera, UniProt Q8BWG9 1-304 (mouse entry)); experiment: as above
T13 construct: also called Ch
T13 sequence (Q8BWG9 other isoform, or with tags, fused parts or gaps): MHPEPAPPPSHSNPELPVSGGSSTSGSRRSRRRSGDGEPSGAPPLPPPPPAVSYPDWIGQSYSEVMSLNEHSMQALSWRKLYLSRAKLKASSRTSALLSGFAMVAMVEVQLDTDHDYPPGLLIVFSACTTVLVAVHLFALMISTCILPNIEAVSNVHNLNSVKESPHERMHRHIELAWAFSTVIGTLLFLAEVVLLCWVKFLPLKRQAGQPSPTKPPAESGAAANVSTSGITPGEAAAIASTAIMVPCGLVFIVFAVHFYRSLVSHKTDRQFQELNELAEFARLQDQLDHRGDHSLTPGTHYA

[16] = biological target: T14, mOrai1-hOrai1 ECL2 (…) protein (human/mouse chimera, UniProt Q8BWG9 1-304 (mouse entry)); experiment: as above; remark: listed apart in the source
T14 construct: also called Ch
T14 sequence (Q8BWG9 other isoform, or with tags, fused parts or gaps): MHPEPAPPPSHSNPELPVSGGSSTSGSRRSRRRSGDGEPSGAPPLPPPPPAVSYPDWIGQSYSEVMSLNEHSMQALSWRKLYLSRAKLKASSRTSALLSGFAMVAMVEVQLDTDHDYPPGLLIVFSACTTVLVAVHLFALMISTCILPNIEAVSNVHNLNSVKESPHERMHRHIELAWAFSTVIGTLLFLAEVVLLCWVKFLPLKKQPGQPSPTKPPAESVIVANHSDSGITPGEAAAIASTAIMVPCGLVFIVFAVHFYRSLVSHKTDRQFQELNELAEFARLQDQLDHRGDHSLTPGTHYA

[17] = biological target: T15, mOrai1-hOrai1 ECL2 (…) protein (human/mouse chimera, UniProt Q8BWG9 1-304 (mouse entry)); experiment: as above; remark: listed apart in the source
T15 construct: also called Ch
T15 sequence (Q8BWG9 other isoform, or with tags, fused parts or gaps): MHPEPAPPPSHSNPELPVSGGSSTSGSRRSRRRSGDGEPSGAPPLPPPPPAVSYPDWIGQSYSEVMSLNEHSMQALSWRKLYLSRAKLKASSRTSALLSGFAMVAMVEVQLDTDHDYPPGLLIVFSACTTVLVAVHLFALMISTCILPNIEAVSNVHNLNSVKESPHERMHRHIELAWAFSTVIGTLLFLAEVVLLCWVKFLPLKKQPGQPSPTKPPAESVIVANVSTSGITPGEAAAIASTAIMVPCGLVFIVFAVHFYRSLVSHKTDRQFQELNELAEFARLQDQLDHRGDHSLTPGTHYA

[18] = biological target: T16, mOrai1-hOrai1 ECL2 (…) protein (human/mouse chimera, UniProt Q8BWG9 1-304 (mouse entry)); experiment: as above; remark: listed apart in the source
T16 construct: also called Ch
T16 sequence (Q8BWG9 other isoform, or with tags, fused parts or gaps): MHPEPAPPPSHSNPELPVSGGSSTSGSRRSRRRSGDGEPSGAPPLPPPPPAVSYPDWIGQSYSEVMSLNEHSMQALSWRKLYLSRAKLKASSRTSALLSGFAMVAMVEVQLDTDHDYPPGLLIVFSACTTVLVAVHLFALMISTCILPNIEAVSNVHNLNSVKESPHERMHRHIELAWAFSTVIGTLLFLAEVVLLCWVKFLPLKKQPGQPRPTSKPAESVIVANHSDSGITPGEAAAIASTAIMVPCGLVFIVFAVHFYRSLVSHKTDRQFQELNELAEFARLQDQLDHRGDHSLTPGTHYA

B1: mAb 5F7.1 (antibody, human IgG2, lambda)
heavy: QVQLVQSGAEVKKPGASVKVPCKASGYTFTDYYINWVRQAPGQGLEWMGWINPNNGGTNYAQKFQGRVTMTRDTSISTAYMELRRLRSDDTAVYYCARERGGYEDWFDPWGQGTLVTVSSASTKGPSVFPLAPCSRSTSESTAALGCLVKDYFPEPVTVSWNSGALTSGVHTFPAVLQSSGLYSLSSVVTVPSSNFGTQTYTCNVDHKPSNTKVDKTVERKCCVECPPCPAPPVAGPSVFLFPPKPKDTLMISRTPEVTCVVVDVSHEDPEVQFNWYVDGVEVHNAKTKPREEQFNSTFRVVSVLTVVHQDWLNGKEYKCKVSNKGLPAPIEKTISKTKGQPREPQVYTLPPSREEMTKNQVSLTCLVKGFYPSDIAVEWESNGQPENNYKTTPPMLDSDGSFFLYSKLTVDKSRWQQGNVFSCSVMHEALHNHYTQKSLSLSPGK
light: QSVLTQPPSVSGAPGQRVTISCTGSSSNIGAGFDVHWYQQLPVTAPKLLIYGNRNRPSGVPARFSGSKSGTSASLAITGLQAEDEAVYYCQSYDSSLTVFGGGTKLTVLGQPKANPTVTLFPPSSEELQANKATLVCLISDFYPGAVTVAWKADGSPVKAGVETTKPSKQSNNKYAASSYLSLTPEQWKSHRSYSCQVTHEGSTVEKTVAPTECS
notes: fully human IgG2 lambda, Campaign 2
[1]
  binding result: no binding (tested: 1 µg)
[2]
  binding result: no binding (tested: 1 µg)
[3]
  percent of control (POC) of FACS Geo Mean: < 1%
[4]
  percent of control (POC) of FACS Geo Mean: < 1%
[5]
  percent of control (POC) of FACS Geo Mean: < 1%
[6]
  percent of control (POC) of FACS Geo Mean: < 1%
[7]
  percent of control (POC) of FACS Geo Mean: < 1%
[8]
  percent of control (POC) of FACS Geo Mean: < 1%
[9]
  binding result: no binding (tested: 1 µg)
[10]
  binding result: no binding (tested: 1 µg)
[11]
  IC50 IFN-γ, whole blood Donor B: 11.8 nM
  IC50 IL-2, whole blood Donor A: 4.05 nM
  IC50 IL-2, whole blood Donor B: 3.49 nM
[12]
  binding result: no binding
[13]
  binding result: no binding
[14]
  binding result: no binding
[15]
  binding result: no binding
[16]
  binding result: no binding
[17]
  binding result: no binding
[18]
  binding result: no binding

B2: mAb 5A4.2 (antibody, human IgG2, lambda, V domains shown)
VH: QVQLVQSGAEVKKPGASVKVSCKASGYTFTDYYMNWVRQAPGQGLEWMGWINPNSGGTKYAQKFQGRVTMTRDTSIRTAYMELSRLRSDDTAVYYCSREYGGNSDWFDPWGQGTLVTVSS
VL: QSVLTQPPSVSGAPGQRVTISCTGSSSNIGAGYDVHWYQQLPGTAPKLLIYGNSNRPSGVPDRFSGSKSGTSASLAITGLQAEDEADYYCQSYDNRLSDSVVIGGGTKLTVQG
notes: as for B1
[1]
  binding result: no binding (tested: 1 µg)
[2]
  binding result: no binding (tested: 1 µg)
[3]
  percent of control (POC) of FACS Geo Mean: < 1%
[4]
  percent of control (POC) of FACS Geo Mean: < 1%
[5]
  percent of control (POC) of FACS Geo Mean: < 1%
[6]
  percent of control (POC) of FACS Geo Mean: < 1%
[7]
  percent of control (POC) of FACS Geo Mean: < 1%
[8]
  percent of control (POC) of FACS Geo Mean: < 1%
[9]
  binding result: no binding (tested: 1 µg)
[10]
  binding result: no binding (tested: 1 µg)
[11]
  IC50 IFN-γ, whole blood Donor A: 4.83 nM
  IC50 IFN-γ, whole blood Donor B: 2.76 nM
  IC50 IL-2, whole blood Donor A: 1.88 nM
  IC50 IL-2, whole blood Donor B: 1.21 nM
[12]
  binding result: no binding
[13]
  binding result: no binding
[14]
  binding result: no binding
[15]
  binding result: no binding
[16]
  binding result: no binding
[17]
  binding result: no binding
[18]
  binding result: no binding

B3: mAb 5C1.1 (antibody, human IgG2, lambda, V domains shown)
VH: QVQLVQSGAEVKKPGASVKVSCKASGYTFTDYYMNWVRQAPGQGLEWMGWINPNSGGTKYAQKFQGRVTMTRDTSIRTAYMELSRLRSDDTAVYYCAREYGGNSDWFDPWGQGTLVTVSS
VL: QSVLTQPPSVSGAPGQRVTISCTGSSSNIGAGYDVHWYQQLPGTAPKLLIYGNSNRPSGVPDRFSGSKSGTSASLAITGLQAEDEADYYCQSYDNRLSDSVVIGGGTKLAVQG
notes: as for B1
[1]
  binding result: no binding (tested: 1 µg)
[2]
  binding result: no binding (tested: 1 µg)
[3]
  percent of control (POC) of FACS Geo Mean: < 1%
[4]
  percent of control (POC) of FACS Geo Mean: < 1%
[5]
  percent of control (POC) of FACS Geo Mean: < 1%
[6]
  percent of control (POC) of FACS Geo Mean: < 1%
[7]
  percent of control (POC) of FACS Geo Mean: < 1%
[8]
  percent of control (POC) of FACS Geo Mean: < 1%
[9]
  binding result: no binding (tested: 1 µg)
[10]
  binding result: no binding (tested: 1 µg)
[11]
  IC50 IFN-γ, whole blood Donor A: 5.42 nM
  IC50 IFN-γ, whole blood Donor B: 2.41 nM
  IC50 IL-2, whole blood Donor A: 2.18 nM
  IC50 IL-2, whole blood Donor B: 1.24 nM
[12]
  binding result: no binding
[13]
  binding result: no binding
[14]
  binding result: no binding
[15]
  binding result: no binding
[16]
  binding result: no binding
[17]
  binding result: no binding
[18]
  binding result: no binding

B4: mAb 5F2.1 (antibody, human IgG2, lambda, V domains shown)
VH: QVQLVQSGAEVKKPGASVKVSCKASGYTFTDYYMNWVRQAPGQGLEWMGWINPNSGGTHYAQKFQGRVTMTRDTSISTAYMELSRLRSDDTAVYYCAREYGGYSDWFDPWGQGTLVTVSS
VL: QSVLTQPPSVSGAPGQRVTISCTGSRSNIGAGYDVHWYQQLPRTAPKLLIYDNSNRPSGVPDRFSGSKSGSSASLAITGLQAEDEADYYCQSYDNSLSDSVLIGGGTKLTVLG
notes: as for B1
[1]
  binding result: no binding (tested: 1 µg)
[2]
  binding result: no binding (tested: 1 µg)
[3]
  percent of control (POC) of FACS Geo Mean: < 1%
[4]
  percent of control (POC) of FACS Geo Mean: < 1%
[5]
  percent of control (POC) of FACS Geo Mean: < 1%
[6]
  percent of control (POC) of FACS Geo Mean: < 1%
[7]
  percent of control (POC) of FACS Geo Mean: < 1%
[8]
  percent of control (POC) of FACS Geo Mean: < 1%
[9]
  binding result: no binding (tested: 1 µg)
[10]
  binding result: no binding (tested: 1 µg)
[11]
  IC50 IL-2, whole blood Donor A: 4.83 nM
  IC50 IL-2, whole blood Donor B: 3.79 nM
[12]
  binding result: no binding
[13]
  binding result: no binding
[14]
  binding result: no binding
[15]
  binding result: no binding
[16]
  binding result: no binding
[17]
  binding result: no binding
[18]
  binding result: no binding
